Assay results: the supplement of paper PMC10126150
± gives the standard deviation of the averaged measurements.

system: ATP; assay: switch fluorescence ratio, 500 uM ATP over buffer (Cy3 cluster intensity, sum of 5 cycles each) (fold (ratio)); higher = stronger signal-on switching upon ATP binding; sequences stand for … in TCGTCGGCAGCGTCAGATGTGTATAAGAGACAGTTTTTTTTTTTTTTTTTTTTTTTTT…TC; settings: aptamer strand: ATP DNA aptamer (quencher-CACCTGGGGGAGTATTGCGGAGGAAGG + anchor), 100 nM annealed; ATP concentration: 500 uM
Method in brief: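 Imaging in selection buffer was followed by imaging after 15 min with 500 uM ATP at 22 °C, for Cy3-labelled switching-strand clusters annealed to 100 nM quencher-labelled ATP aptamer on a modified Illumina MiSeq flow-cell. Five of these buffer/ATP cycles ran, separated by NaOH stripping and re-annealing. The fluorescence ratio per cluster is summed target-cycle over summed buffer-cycle Cy3 intensity, averaged per switch-domain sequence; clusters outside 100-1000 RFU were removed.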
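Note: ATP exposure 15 min at 22 °C before imaging.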

| Sequence | switch fluorescence ratio |
| --- | --- |
| TTTACGGTTC | 1.03 ± 0.054 |
| ATAATATGGT | 0.9838 ± 0.0036 |
| TTCCGTTTGA | 1.24 ± 0.42 |
| CAGCTATGTG | 0.973 ± 0.011 |
| GGGGTATACC | 0.956 ± 0.021 |
| GCATGTCTTG | 1 ± 0.028 |
| GGGCTGATCT | 1.04 ± 0.045 |
| GGATGAATGG | 1.03 ± 0.043 |
| CGCTGTGGAA | 1.04 ± 0.044 |
| GAGGGGGAGA | 0.99 ± 0.024 |
| GGGAGTATGT | 0.977 ± 0.054 |
| GGAACTCATG | 0.959 ± 0.046 |
| CGGCGTTCGC | 0.964 ± 0.049 |
| TTTTTAAAAC | 1.003 ± 0.0097 |
| AGAATGCACG | 0.957 ± 0.035 |
| CAGGGGTCGT | 1.03 ± 0.038 |
| AGGTGAGGGG | 0.99 ± 0.022 |
| TGGGGGGCCA | 1 ± 0.027 |
| AATTTCGGAG | 1.02 ± 0.026 |
| TATGGTCGC | 1.03 ± 0.026 |
| GAGTTAATTT | 0.989 ± 0.017 |
| AGGTTGGAGG | 0.976 ± 0.018 |
| AGTTCTTATT | 0.965 ± 0.037 |

| Sequence | switch fluorescence ratio |
| --- | --- |
| GGGGGGTAGC | 0.9761 ± 0.0061 |
| TGGGATGTTT | 0.982 ± 0.026 |
| AAGGCTTAAT | 1.006 ± 0.0063 |
| AGGGGTAACG | 0.9807 ± 0.0098 |
| GGTTGGTGCG | 1.1 ± 0.074 |
| TTGTTTAGGC | 1.1 ± 0.027 |
| AGGGGGATGG | 0.996 ± 0.013 |
| ACGGGGATCA | 0.981 ± 0.045 |
| GCATTAAGGG | 1.01 ± 0.039 |
| TATCGGTTCG | 0.9992 ± 0.0076 |
| GGCTAAGGAT | 1 ± 0.018 |
| GTGTAGGCTT | 1 ± 0.015 |
| TATCAGAGGG | 1.02 ± 0.023 |
| GGGGTTAATT | 1 ± 0.026 |
| AGGAATAAAA | 0.961 ± 0.1 |
| TTAGTGGGTT | 1.01 ± 0.024 |
| CGGTGAATCT | 1.01 ± 0.03 |
| GCTGGCGGAT | 1.01 ± 0.041 |
| TTGTTACATC | 0.941 ± 0.016 |
| CAGAACCAGG | 1.24 ± 0.06 |
| CTTAGGAGGT | 0.987 ± 0.025 |
| GCGATATAGC | 1.03 ± 0.027 |
| TGAGATTCAG | 0.985 ± 0.02 |

| Sequence | switch fluorescence ratio |
| --- | --- |
| ATGTTAAATT | 0.976 ± 0.014 |
| AGCCGGGGTA | 0.995 ± 0.025 |
| TTAAATTGCT | 0.991 ± 0.025 |
| GGGTGCTGCG | 1.01 ± 0.037 |
| GGTCAAATAA | 0.99 ± 0.042 |
| CAATGATAGG | 0.992 ± 0.017 |
| GAGTACCTGG | 1.01 ± 0.04 |
| AGTGTAATAT | 1 ± 0.023 |
| TATCAGGGGT | 1.08 ± 0.073 |
| TTGTTAAGAG | 0.986 ± 0.043 |
| TTGGGGAAGT | 0.994 ± 0.039 |
| TAGAACTTCG | 1.014 ± 0.0077 |
| ACATGGTTAT | 0.994 ± 0.018 |
| TTTATAGTAT | 0.993 ± 0.03 |
| AGGCTTTTTG | 0.969 ± 0.015 |
| GGGATAGACT | 0.995 ± 0.035 |
| GGTGGTAAGA | 0.978 ± 0.074 |
| GGTAGAGTAA | 1 ± 0.033 |
| AAATTAGGGG | 0.9908 ± 0.0085 |
| CGTGGGATAG | 1.04 ± 0.036 |
| GGGTTACTGG | 1.002 ± 0.0021 |
| TGTGTTAGAA | 1.01 ± 0.015 |
| CGTAAAGCCT | 0.991 ± 0.02 |

| Sequence | switch fluorescence ratio |
| --- | --- |
| GCTTGTTCGG | 1.04 ± 0.011 |
| GGGGGCAGAT | 0.97 ± 0.018 |
| ATAGGACTGA | 1.03 ± 0.023 |
| GGATACGTTT | 0.994 ± 0.012 |
| AATAGCTATT | 0.986 ± 0.023 |
| TAAACACTAA | 1.01 ± 0.038 |
| TATTGGTTTT | 1 ± 0.011 |
| GCTAAGTATG | 1.04 ± 0.043 |
| ACATCGGAAC | 1.04 ± 0.015 |
| CGGAAACTAG | 1.022 ± 0.0038 |
| AGCCAGTTCG | 1 ± 0.012 |
| AAGGAGGGAC | 0.982 ± 0.011 |
| CGTCTCTTAG | 0.995 ± 0.027 |
| TGGGGCTCAG | 0.986 ± 0.027 |
| GCCGGAAAGT | 1.05 ± 0.07 |
| AAAAAGGGCA | 0.995 ± 0.061 |
| GCGAGTACGA | 1.02 ± 0.032 |
| AGTGCTTCGT | 0.9905 ± 0.0094 |
| AATCCGGGGG | 0.9661 ± 0.0022 |
| ATTGATCGAT | 1.02 ± 0.035 |
| TCTATAGGGG | 1 ± 0.05 |
| TTGTTCTGGA | 0.977 ± 0.056 |
| CGCTTAAAAA | 1.02 ± 0.079 |

| Sequence | switch fluorescence ratio |
| --- | --- |
| TTTAGTTCGG | 0.998 ± 0.027 |
| CAGGCATGCG | 1.01 ± 0.037 |
| GGGCTCTATC | 0.9913 ± 0.0025 |
| ACCGTCCAAA | 1.03 ± 0.024 |
| TACTTGGCCG | 1.01 ± 0.052 |
| TAATCGTGTT | 0.983 ± 0.014 |
| TTACGGTGGC | 0.989 ± 0.045 |
| ATAGATGGGG | 1.01 ± 0.018 |
| GAAGAGGGAG | 0.997 ± 0.026 |
| CCGTGGGGGG | 1.02 ± 0.083 |
| CGAATGGGGT | 0.985 ± 0.039 |
| AGATGTGACG | 0.9686 ± 0.0087 |
| CGACTATTTT | 1.01 ± 0.045 |
| CTATTTGGCA | 1.0113 ± 4.2e-05 |
| AAGGATGGTG | 0.957 ± 0.069 |
| TTTGATTTGT | 1.042 ± 0.0087 |
| AGCAATAGTT | 2.97 ± 0.051 |
| GCATTGACGG | 1.03 ± 0.02 |
| AAACGGCACG | 1.009 ± 0.0032 |
| CGCTATGATG | 0.984 ± 0.028 |
| AGGTGTTTAC | 1.01 ± 0.011 |
| CGGTCTGTTA | 1.04 ± 0.11 |
| ATGTATTATG | 0.956 ± 0.026 |

| Sequence | switch fluorescence ratio |
| --- | --- |
| ACAGGCTTTT | 1 ± 0.018 |
| CGGGACCCCC | 1.141 ± 0.011 |
| TCCCCAGGGG | 1.1 ± 0.11 |
| AAGATACGCT | 1.06 ± 0.065 |
| GCTGTAGGAG | 0.9843 ± 0.0072 |
| GTGTTAGTAC | 0.984 ± 0.056 |
| GGGTAAATGG | 1.02 ± 0.034 |
| ATCATTGCGG | 0.9746 ± 0.0012 |
| TTTCTTAGCT | 1.005 ± 0.0046 |
| TTGATGACGT | 0.9932 ± 0.0075 |
| GAGGGGTAGC | 0.988 ± 0.016 |
| AAATACTTTT | 1.03 ± 0.021 |
| AGGGGAGATG | 0.991 ± 0.048 |
| TAAGGGTGGG | 1 ± 0.043 |
| CCTGATTGAA | 0.991 ± 0.0088 |
| TCGGAGGA | 1.03 ± 0.048 |
| GGTTTTCCTG | 0.975 ± 0.014 |
| ATCGGACGGG | 1.02 ± 0.016 |
| CGCTTCGGGG | 0.9735 ± 0.0082 |
| GATCCAGCGG | 1.02 ± 0.025 |
| AAAGTTTCGT | 1.01 ± 0.018 |
| TTTAACTAGT | 1 ± 0.018 |
| CAATAGTTGT | 0.996 ± 0.029 |

| Sequence | switch fluorescence ratio |
| --- | --- |
| GTCGCGGCGA | 0.9664 ± 0.006 |
| AGGAGCGGGG | 1 ± 0.1 |
| GGGGTGCAGT | 0.992 ± 0.022 |
| TCTAAAAGAT | 0.9771 ± 0.0026 |
| GGGTATCA | 0.954 ± 0.021 |
| AGGGAATTAC | 1.022 ± 0.0036 |
| TAGGGATAG | 1.01 ± 0.015 |
| AACAATGAAG | 1.03 ± 0.022 |
| TATTCAGGCA | 1.01 ± 0.041 |
| ACCGCTCAGT | 1.06 ± 0.023 |
| AGGTTAGTGT | 0.9584 ± 0.001 |
| CATCCTGAAT | 1.08 ± 0.027 |
| AGGCACCATC | 1.06 ± 0.045 |
| GGGAGTAAAT | 1.01 ± 0.037 |
| TTCGCACCGG | 1.021 ± 0.0073 |
| TGGCTGTCTT | 0.97 ± 0.13 |
| CCTGCGGGG | 1.11 ± 0.022 |
| CGTAAACTAG | 0.97 ± 0.016 |
| GGTCTAGGTG | 1.2586 ± 0.00091 |
